Test results taken from publication PMC9265643.
Values joined by “and” are separate entries in the source; they are usually repeats but may differ in a detail not shown here. Equal entries are not always repeated.

Legend:
[1] = molecular target: non-myristoylated Gtα/Giα chimera (European robin cone Gtα with residues 220-298 replaced by the corresponding region of bovine Giα1), His6-SUMO tag removed (European robin | bovine); experiment: SPR; Biacore 3000; Gtα/Giα chimera (myristoylated or non-myristoylated) amine-coupled on CM5 chip, 500 nM ErCry4a-497 injected; 10 mM HEPES/NaOH pH 7.4, 150 mM NaCl, 10 mM MgCl2, 0.005% Tween-20, 3.4 mM EDTA; fit to a Langmuir binding model, apparent KD
[2] = molecular target: myristoylated Gtα/Giα chimera (European robin cone Gtα with residues 220-298 replaced by the corresponding region of bovine Giα1) (European robin | bovine); experiment: as above
[3] = molecular target: non-myristoylated Gtα/Giα chimera (European robin cone Gtα with residues 220-298 replaced by the corresponding region of bovine Giα1), His6-SUMO tag removed (European robin | bovine); experiment: as above; remark: listed apart in the source
[4] = molecular target: ErGtα-mRuby3 (wildtype European robin cone G protein α-subunit with mRuby3 fused to its C-terminus) (European robin); experiment: FRET or BRET; acceptor photobleaching FRET in transiently co-transfected QNR/K2 quail neuroretina cells, fixed 48 h after transfection; donor mClover3, acceptor mRuby3; FRET efficiency in percent
[5] = molecular target: myristoylated Gtα/Giα chimera (European robin cone Gtα with residues 220-298 replaced by the corresponding region of bovine Giα1) (European robin | bovine); experiment: SPR; Biacore 3000; Gtα/Giα chimera (myristoylated or non-myristoylated) amine-coupled on CM5 chip, ErCry variant injected; 10 mM HEPES/NaOH pH 7.4, 150 mM NaCl, 10 mM MgCl2, 0.005% Tween-20, 3.4 mM EDTA; control surface Ulp1 (activation/deactivation cycle for ErCry1a); global fit to a two-state-reaction model, apparent KD = kd1/ka1
[6] = molecular target: non-myristoylated Gtα/Giα chimera (European robin cone Gtα with residues 220-298 replaced by the corresponding region of bovine Giα1), His6-SUMO tag removed (European robin | bovine); experiment: as above
[7] = molecular target: non-myristoylated Gtα/Giα chimera (European robin cone Gtα with residues 220-298 replaced by the corresponding region of bovine Giα1), His6-SUMO tag removed (European robin | bovine); experiment: as above; remark: listed apart in the source
[8] = molecular target: rhodopsin (dark-adapted) (Bos taurus) (UniProt P02699); experiment: SPR; conditions: cited from earlier work
Sequence of UniProt P02699 (P02699 whole entry): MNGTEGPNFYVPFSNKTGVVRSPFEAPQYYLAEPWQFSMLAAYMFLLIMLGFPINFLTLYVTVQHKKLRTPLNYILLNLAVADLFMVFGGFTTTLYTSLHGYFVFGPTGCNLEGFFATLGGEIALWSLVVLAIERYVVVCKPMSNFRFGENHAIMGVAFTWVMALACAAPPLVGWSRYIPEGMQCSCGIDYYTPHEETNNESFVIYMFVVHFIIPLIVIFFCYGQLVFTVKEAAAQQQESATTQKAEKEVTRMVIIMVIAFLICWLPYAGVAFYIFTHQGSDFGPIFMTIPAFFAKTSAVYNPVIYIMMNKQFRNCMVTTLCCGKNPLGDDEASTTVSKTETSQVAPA

Work on “C-terminally truncated European robin cryptochrome 4a (ErCry4a-497) (domain or fragment)” yielded a Kd [1] of 360 nM, a Kd [2] of 200 nM and a koff [2] of 0.000915 s⁻¹. For the same substance, the kon [2] was 5350 M⁻¹ s⁻¹, the Kd [3] was 340 nM and the koff [3] was 0.00305 s⁻¹. It also gave a kon [3] of 6510 M⁻¹ s⁻¹.
Substance “mClover3-ErCry4, truncated after aa 497 (domain or fragment)” has an FRET efficiency [4] of 49.5%.
“European robin cryptochrome 1a (ErCry1a), apo form without bound FAD (natural protein)” gave a Kd [5] of 400 nM, a ka1 (two-state-reaction model, forward reaction rate) [5] of 130000 M⁻¹ s⁻¹ and a kd1 (two-state-reaction model, backward reaction rate) [5] of 0.0527 s⁻¹.
In the case of “mClover3-ErCry4 (ErCry4a with mClover3 fused to its N-terminus) (natural protein)”, the FRET efficiency [4] is reported as 49.7%.
In the case of “European robin cryptochrome 4a (ErCry4a), purified recombinant, as used in SPR (natural protein)”, the Kd [5] is reported as 200 nM and 290 nM, the ka1 (two-state-reaction model, step A + B to AB) [5] is reported as 3320 M⁻¹ s⁻¹ and the kd1 (two-state-reaction model, step AB to A + B) [5] is reported as 0.000674 s⁻¹. It also gave a Kd [6] of 32 nM, a ka1 (two-state-reaction model, step A + B to AB) [6] of 343000 M⁻¹ s⁻¹ and a kd1 (two-state-reaction model, step AB to A + B) [6] of 0.011 s⁻¹. For the same substance, the Kd [7] was 35 nM.
In the case of transducin (from UniProt P04695), the Kd [8] is given as 360 nM.
For “European robin cryptochrome 1b (ErCry1b), apo form without bound FAD (natural protein)”, the Kd [5] was 1530 nM, the ka1 (two-state-reaction model, forward reaction rate) [5] was 21700 M⁻¹ s⁻¹ and the kd1 (two-state-reaction model, backward reaction rate) [5] was 0.0332 s⁻¹.
